Test system: ssAPC14.2 TALEN right monomer (Xanthomonas TALE-FokI (artificial)?)
Experiment: cell_activity
Settings: pair with p5; repeat 50%; pig fibroblasts

## ACAGAAATTCTGGGT (double strand) [APC14.2 right half-site]
  activity: 48 % HDR day 3
